Target: T1, human RetL2 (insert of clone DSW240) expressed on 293/EBNA cells (human, UniProt O00451 22-444)
T1 construct: no cleavage sites are stated; also called retL2 expression plasmid
T1 sequence: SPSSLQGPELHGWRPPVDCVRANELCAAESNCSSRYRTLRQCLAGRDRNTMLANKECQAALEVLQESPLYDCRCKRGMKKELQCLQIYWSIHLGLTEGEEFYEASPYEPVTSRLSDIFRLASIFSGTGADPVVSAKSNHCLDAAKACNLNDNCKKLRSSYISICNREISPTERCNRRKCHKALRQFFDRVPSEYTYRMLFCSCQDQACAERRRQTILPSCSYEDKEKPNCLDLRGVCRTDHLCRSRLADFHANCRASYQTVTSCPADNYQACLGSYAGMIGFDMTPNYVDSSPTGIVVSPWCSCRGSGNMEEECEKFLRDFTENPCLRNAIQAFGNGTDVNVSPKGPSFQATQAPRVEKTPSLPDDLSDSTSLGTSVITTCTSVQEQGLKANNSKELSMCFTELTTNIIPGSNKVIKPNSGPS
Assay: staining of 293/EBNA cells transfected with the insert of clone DSW240
Procedure: Plasmid DNAs (the retL2 expression plasmid, a retL1 expression plasmid for a positive control, and an expression plasmid containing an unrelated protein for a negative control) are transfected into 293/EBNA cells (8 ×10^5 on a 60 mm plate) using the lipofection method. After 48 hr, the cells are washed two times with HBHA buffer (0.5 mg/ml BSA, 0.1% NaN_3, 20 mM HEPES (pH 7.0)) and incubated with 20 ug/ml rat Ret/IgG in Tris-buffered saline plus 1 mM MgCl_2 and CaCl_2 for 60–90 min at room temperature. Following this incubation, the cells are washed four times with HBHA buffer and then fixed with 60% acetone/3% formaldehyde/20 mM HEPES (pH 7.0) for 30 sec. […]

binding result: binds
B1: rat Ret/IgG fusion protein (Fc fusion)
chain: EAPLGLYFSRDAYWERLYVDQPAGTPLLYVHALRDAPGEVPSFRLGQYLYGVYRTRLHENDWIHIDAGTGLLYLNQSLDHSSWEQLSIRNGGFPLLTVFLQVFLGSTAQREGECHWPGCARVYFSFINDTFPNCSSFKARDLCTPETGVSFRIRENRPPGTFYQFRMLPVQFLCPNISVKYKLLEGDGLPFRCDPDCLEVSTRWALDRELQEKYVLEAECAVAGPGANKEKVAVSFPVTVYDEDDSPPTFSGGVGTASAVVEFKRKEGTVVATLQVFDADVVPASGELVRRYTSTLLSGDSWAQQTFRVEHTPNETLVQSNNNSVRATMHNYKLVLNRSLSISESRVLQLVVLVNDSDFQGPGSGVLFLHFNVSVLPVTLNLPMAYSFPVNRRARRYAQIGKVCVENCQEFSGVSIQYKLQPSSTNCSALGVVTSTEDTSGTLYVNDTEALRRPECTELQYTVVATDRQTRRQTQASLVVTVEGTYIAEEVGCPKSCAVNKRRPECEECGGLGSPTGRCEWRQGDGKGITRNFSTCSPSTRTCPDGHCDALESRDINICPQDCLRGPIVGGHERGERQGIKAGYGICNCFPDEKKCFCEPEDSQGPLCDALCRT
notes: Made in COS or CHO cells and purified on Protein A; also called Ret/Ig fusion protein; soluble Ret/IgG fusion protein; not shown: Fc portion of human IgG1 (part of the Fc domain, 700 bp Sal1 fragment from plasmid 2-4, originally from pSAB144)

Reference: patent publication US6861509 (Biogen, dated 2005)
